A protein production outcome set (Wang et al. 2014)

Test: label from the status in PepcDB records

Sequence | protein production
MGIKQYSQEELKEMALVEIAHELFEEHKKPVPFQELLNEIASLLGVKKEELGDRIAQFYTDLNIDGRFLALSDQTWGLRSWYPYDQLDEETQPTVKAKKKKAKKAVEEDLDLDEFEEIDEDDLDLDEVEEELDLEADDFDEEDLDEDDDDLEIEEDIIDEDDEDYDDEEEEIK | not failed
KTNFKIVLKEDSELLQEVVVTGYGGKVSRSKLTNSISTVNPQMLDKGIYTNPSQALSGSVPGLKVSLTSGNPTSSPKIILRGGTNFDGSGGPLVVVDGQLRDNFDDINPQDIASMDVLKDAGATAIYGARASNGVILITTKSGKAGH | failed
MINLELFKEFLLNLIKDYGYFGIFLVGFSEPIFQPFPTEIFIIAGILLGLDWKLVWLISTIACNFGAVVTYYLAKKYGEKLMLKLFDEEKIKKGSHYLKKWGILGVIIASFTPIPFEVICWVCGSFEMPFERYMIAVFLSRLIRHGMVILPFVLKDHIHF | failed
MKFQLKRLAKKRPDRVQIKIQDGQFEIIGMGVWHSYWRDPYHLLLTIPWTGFLLLICLSYLAINLIFALAYWLGGDCIANAKPGNFLDLFFFSVQTLASIGYGAMYPKTLYANTVVTIEAMIGLVGIAVMTGLAFARFSRPSARVIFSRVAVITPYNDVPTLMFRTANQRRNLILEAQMRVYLMRDEITAEGGFIRRFHDLKLLRNQTPSFTLSWLALHPIDEFSPLYGMSAESLIQTNTNIIISVSGIDETVAQVVHARYTYTASNILWNSRFVDIFHHTSDGHRYIDYKYFHDVLPLDKIG | failed
MLLFEQPVDLEKNNEDDTNIKPFAISRHFLLKLLLCGIILIELLLYSKCPKPIDNGPRTIANRSNTYFNGTHDFKTLTILISIDGFHPRLIDAKYTPFLYNLHNLRSPYDMNITTAPYMIPSFPTQTFPNHWSMVTGKYPIEHGIVSNIFWDNFTSSEFRPNNLDARIWSNTADPIWQLLQTESQGEYKVATHMWPGSEVVYEDHGDVPRERMPFYFGKFNQWEKLQDKLAQIFRYIDMPQLKDRPELVISYIPNVDSYGHSFGYDLRDKRLQKLIGEVDGFFLDLIEGLQKRNLLKISNVMIVSDHGMSNVNANDGEHVVVWERVFPADAMSAFISHLYNEGPMMMVCLKNPRDKQWICDLIEAQLEKAYGDEISRKFHVILKEDFDPSWKYFQYDNRKHRYDDRVGDIWILADEYYAIVKEMGDVPIGIMGTHGYNFNNCSDMASIFIGMGPMFNNEVVPPFENIEVYNMLIKASALLGEEKTKKEKSLLQ | failed
VRPGDTEIDKLVALIDAADKVTLFCGSGTAGAHAEVMEFAEKIKSPVGHALRGKEWIQYDNPYDVGMSGLLGYGAAYEATNECDLLILLGTDFPYNAFLPTDVKIAQVDVRPERLGRRSKLDLAVWGDVRETLRCLIPRVKPKENRRFLDKMLKKHADALEGVIKAYTRKVEK | failed
ISMIGERTNSNGSKAFREAMLSGDWEKCVDIAKQQTRDGAHMLDLCVDYVGRDGTADMATLAALLATSSTLPIMIDSTEPEVIRTGLEHLGGRSIVNSVNFEDGDGPESRYQRIMKLVKQHGAAVVALTIDEEGQARTAEHKVRIAKRLIDDITGSYGLDIKDIVVDCLTFPISTGQEETRRDGIETIEAIRELKKLYPEIHTTLGLSNISFGLNPAARQVLNSVFLNECIEAGLDSAIAHSSKILPMNRIDDRQREVALDMVYDRRTEDYDPLQEFMQL | failed
MAGYVGDVAIAYDRDLGHVLFEQYASDIARRTAGKPVRDVLEVASGTGIVTRQLRNVLPGDAQLTAIDISDSMMEVARTKFLPHEQVTFQVANAVALPFDDRAFDTVVCQFGVMFFDKDKAFQETHRVLRQGGRYLFSVWDSRDYNPYASLTFEVMKQFFPSDPPRFLESTVSSFEIDPVKERLIRAGFEQISISVQRRIYDIPDIRAFARGLIFSPIINEIRERGEVDPDDIVEALVKIFIGEYGSNPTRFPMQAILFETEKPLEHHHHHH | failed
MGSPNSLSRRGFCLCCVGGATFAASAGWLTPREAYAEARGLVSLIKDSAAISPITASRLRNNISVLEGSGGNIAVLTGSDGKLLVDAGIRVSRAQLTNALAGLGTDPVTHLVNTHWHFDHADGNEWLHSAGAKIIAHENTRKHLLGVQRVEDWDYNFLPLGPGGIPSEVFAGSHKLGLNGASISLKYFGPAHTDSDVSVTFVEANIVHVGDTFWNGIYPFIDYSTGGSIDGMIAACDANLAATDKDTIIIPGHGKPVSNKAELQAFRDMLVAIRDNVARLKAQGRTWDETVAAKPTAAFDAQWGQFVIDPGFFTRLVYQGV | failed
PEQLRSTVRIGTIDSIVQAWLPRFIERVRELYPGLTLDLNVDTSRGIAREIVERKIDLALLMGPVLEAGLRNVDLGSMDCAWVAAPGFGLGGRRIGLADLVDLPILTFSRNSDPHVWLMRQFEELRLPQPAISNSNSLSAML | failed
SERRLGVRAWVKENRGSFQPPVCNKLMHQEQLKVMFIGGPNTRKDYHIEEGEEVFYQLEGDMVLRVLEQGKHRDVVIRQGEIFLLPARVPHSPQRFANTVGLVVERRRLETELDGLRYYVGDTMDVLFEKWFYCKDLGTQLAPIIQEFFSSEQYRTGKPIPDQLLKEPPFPLSTRSIMEPMSLDAWLDSHHRELQAGTPLSLFGDTYETQVIAYGQGSSEGLRQNVDVWLWQLEGSSVVTMGGRRLSLAPDDSLLVLAGTSYAWERTQGSVALSVTQDPACKKPLG | not failed
MQIVKKEKFILKEYTFENGRTIPVQMGYETYGTLNRERSNVILICHYFSATSHAAGKYTAHDEESGWWDGLIGPGKAIDTNQYFVICTDNLCNVQVKNPHVITTGPKSINPKTGDEYAMDFPVFTFLDVARMQCELIKDMGIARLHAVMGPSAGGMIAQQWAVHYPHMVERMIGVITNPQNPIITSVNVAQNAIEAIRLDPSWKGGKYGEEQPMKGLQLANRMMFMNAFDEHFYETTYPRNSIEVEPYEKVSSLTSFEKEINKLTYRSIELVDANSWMYTAKAVLLHDIAHGFSSLEEALSNVEANVLMIPCKQDLLQPSRYNYKMVDLLQKQGKYAEVYEIESINGHMAGVFDIHLFEKKVYEFLNRKVSSFV | not failed
MVYLMLCLKIWRVVLKKNKTLVFISLFLLSVFLGGFYFYFDPNILYLLKGEKDFSKLIMGIDFYIDKKKFADAKKAMLFSSYYANTEFKWLALAKRAKLWALNTGDYHLMGEIVNLGVKVLPGNLKLRALEVYSKLKIGLLKDAYRIANEYLLNSEEYQGLYDEVFIKNLSSDNGILDFNKFIDKIYKEKDARIFEEIGLNLKNNAFLINAMLLYIEKKNIDSAKRILFRIKEDKSFLKELAYISYNLNDLDYTISNLKSIKNEEDPTLLFLLADAYFKKGDIKNAKNEYLKLYTRFPDYNVLVYLNLALIANSENDYKRAISYLNKANEVFKDNKIINYYLANIYFGIKNYFKANEIIANYKEDPLFFKLYFALNYANSKYEAKKSYLWRLFYKTEYNSSIAQFLAWNLLLYSDLKDLDLFFRIYNFSENKQDWYDFYKFYYYFLKRDFISSKKIIFDNKSQKYMFGIYYNLGVLSFSEKDYEEAERYFNKGISLLPSSFYDKDSTTPYERELVSKIYLKQGINYLYLGKMEKGKESILASYSFYETDEGRLYKNMIDTLRERNLNFD | failed
MRGLSLSPVVLPEVRREAGVELRKARLEDVDAIYWLIRYWAEKGLMLVRSHSHLYENIRDFWVLEDEDGQIVGTVALHVLWRDLAEIRGLAVHPTRQGQGLGRWLVLGAEREARDLGLPRVFAWTLQVNFFRALGYRVTSREALPPKVWSECNACPFYENCREIAVVKEFSPGASGG | failed
MTAVQLMELDSCTRCGECVKWCPTYAASGQKPGLAPRDKILRWRQYMNKSYGLKAKLFGPTEIPQSELEEFKDDVHGCTTCGICATVCESGINTVELWESLRTNLVKKGIGPFGKQGMFPKLEHHHHHH | failed
MANVSLNKVDKQALVHQPNLLRECFALLVNAHYQTSPNDLLHLLRDDNSSVYLAMDKQNIIGVILTVEEGGLDDELIEAIQLGQRRPKGHLTPITIINQLGLVKVGKLITSRVMRIAVHPDLQGSGIGKRMLTLLEESVGAHVDYLSTSFGATDELIQFWQQAGYQSIRLGTMRDAASGCYSLLMVRQLANKSQ | failed
MHCRIRNTISCSNYIFSAVWNFLISVFINKTNFNNSVYCRIFKVSIGLRKSISSTTRTRWVPVVFICSRSTNRWTGARSVNPIRNLEHHHHHH | failed
